Data from patent US20220073643A1 (NANJING GENSCRIPT BIOTECH, published 2022).

Molecular target: human Claudin18.2 (human)
Assay: cell-based or functional assay

Binder | CDC % Relative activity | CDC EC50
263E9F3 (antibody, V domains shown) VH: EIQVQQSGPELMKPGASVKISCRSSGYSFTSYYIHWVKQSRGKSLEWIGYIDPFSGGTRYNQKFEGKATLTVDKSSTTAYMHLSSLTSEDSAVYYCASLRFFAYWGQGTLVTVSA VL: DIVMTQSPSSLTVTAGEKVTMTCKSSQSLLNSGNQENYLTWYQQKPGQPPELLISRASTRQSGVPDRFTGSGSGTDFTLTISSVQTEDLAVYYCQNDYSYPLTFGAGTKLELK | 116% | 1.48 µg/mL
198F10B8 (antibody, V domains shown) VH: QAYLQQSGAELVRSGASVRMSCKASGYTFSSYNMHWVKQTPGQGLEWIGYIYPGNGGTNYNQKFKDKATLTADTSSSTAFIQISSLTSEDSAVYFCLTGRGFAYWGQGTLVTVSA VL: DIVMTQSPSSLTVTAGERVTMSCKSSQSLFNSGNQKNYLTWYQQKPGQPPKLLIYRASTRESGVPDRFTGSGSGTDFTLTISSVQAEDLAVYYCQNDYSYPLTFGVGTKLELK | 526% | 0.3 µg/mL
275B2G2 (antibody, V domains shown) VH: EVMLVESGGGLVKPGGSLKLSCAASGFTFRDYTMSWVRQTPEKRLEWVATSIIGGTYTYYPDSVKGRFTISRDNVKNTLYLQMSSLRSEDTAMYYCSRLGRGNAMDYWGQGTSVTVSS VL: DIVMTQSPSSLTVTAGEKVTMSCKSSQSLLNSGNQKNYLTWYQQKPGQPPKLLIYWASTRESGVPDRFTGSGSGTDFTLTISSVQAEDLAVYYCQNDYSYPFTFGSGTKLEIK | 98.4% | 1.66 µg/mL
271B1B6 (antibody, V domains shown) VH: QAYLQQSGAELVRSGASVKMSCKASGYTFTNYNIHWVKQTPGQGLEWIGYIYPGNGGNYYNQKFKGKATLTADTSSITAYMQISSLTSEDSAVYFCARDYYGNSFAYWGQGTLVTVSA VL: DIVMTQSPSSLTVTAGEKVTMNCKSSQSLLNSGNQKNYLTWYQQKPGQPPKLLIYWASTRESGVPDRFTGSGSGTDFTLTISSVQAEDLAIYYCQNDYYYPLTFGAGTKLELK | 145% | 1.12 µg/mL
265E6G2 (antibody, V domains shown) VH: QAYLQQSGAELVRSGASVKMSCKASGYTFTSYNMHWVKQTPGQGLEWIGYIYPGNGGTNYNQKFKGKATLTADTSSSTAYMQISSLTSEDSAVYFCARDYYGNSFAYWGQGTLVTVSA VL: DLVMTQSPSSLTVTAGEKVTMSCKSSQSLLNSGNQKNYLTWYQQKPGQPPKLLIYWASTRESGVPDRFTGSGSGTDFTLTISNIQAEDLAVYYCQNDYSYPLPFGAGTKLELR | 526% | 0.327 µg/mL
277F1F8 (antibody, V domains shown) VH: QAYLQQSGPELVRSGASVKMSCKASGYTFTSHNMHWVKQTPGQGLEWIGYINPGNGGNNYNQKFKGKATLTADTSSSTAYMQISSLTSEDSAVYFCARDYYGNSFAFWGQGTLVTVSA VL: DIVMTQSPSSLTETAGEKVSMSCKSSQSLLNSGNQKNYLTWYQQKPGQPPKLLIYWASTRESGVPDRFTGSGSGTDFTLTISSVQAEDLAVYYCQNDYRFPFTFGAGTKLELK | 106% | 1.54 µg/mL
267B2C5 (antibody, V domains shown) VH: QVQLKESGPGLVAPSQSLAITCTVSGFSLTTYGVSWVRQPPGKGLEWLGVIWGDGSTHYHSALISRLSIRKDNSKSQVFLKVNSLQTDDTATYYCGKPGRGNAMDYWGQGTSVTVSS VL: DIVMTQSPSSLTVTAGEKVTMSCKSSQSLLNSGNQKNYLTWYQQKPGQSPKLLIYWASTRESGVPDRFTGSGSGTDFTLTISSVQAEDLAVYYCQNDYIYPLTFGGGTTLELK | 142% | 1.21 µg/mL
286C7F11 (antibody, V domains shown) VH: QVQLKESGPGLVAPSQSLSITCTVSGFSLTDYGVSWIRQPPGKGLEWLGVIWNRGNTYYNSALKSRLSISKDNSKSQVFLRMNSLQTDDTAMYYCAKHDFLRFLDYWGQGTTLTVSS VL: DVVMTQSPSSLTVTAGEKVTMSCKSSQSLLNSGNQKNYLTWYQQKPGQPPKILIYWASTRESGVPDRFTGSGSGTDFSLTITSVQAEDLAVYYCLNDYYYPLTFGAGTKLELK | 107% | 1.52 µg/mL
279E8B8 (antibody, V domains shown) VH: QAYLQQSGAELVRSGASVKISCKASGYTFASHNMHWVKQTPGQGLEWIGYIYPGNGGTKYNQKFTGKATLSADTSSSTAYLQISSLTSEDSAVYFCARDYFGNSFVYWGQGTLVTVSA VL: DIVMTQSPSSLTEKAGEKVSMRCKSSQSLLNSGNQKNYLTWYQQKPGQPPKLLIYWASTRESGVPDRFTGSGSGTDFTLTISSVQADDLAVYYCQNDYMYPFTFGAGTKLELK | 129% | 1.27 µg/mL
268D7H9 (antibody, V domains shown) VH: QAYLQQSGAELVRSGASVKMSCKASGYTFTNYNIHWVKQTPGQGLEWIGYIYPGNGGNYYNQKFKGKATLTADTSSSTAYMQISSLTSEDSAVYFCARDYYGNSFAYWGQGTLVTVSA VL: DIAMTQSPSSLTVTAGEKVTMNCKSSQSLLNSGNQKNYLTWYQQKPGQPPKLLIYWASTRESGVPDRFTGSGSGTDFTLTISSVQAEDLAIYYCQNDYYYPLTFGAGTTLELK | 140% | 1.23 µg/mL
273C10E5 (antibody, V domains shown) VH: QVQLQQSGAELVKPGASVKLSCKASGYTFTSFGINWLRQRPEQGLEWIGWIFPGDGNSKYNENFKGKATLTTDKSSSTAYMQVTRLTSEDSAVYFCARFYYGNSFANWGQGTLVTVSA VL: DIVMTQSPSSLTVTAGEKVTMSCKSSQSLLNSGNQKNYLTWYQQKPGQPPKLLIYWAATRESGVPDRFAGSGSGTDFTLTISSVQAEDLAVYYCQNDYFYPFTFGAGTKLELK | 67.6% | 2.41 µg/mL
275H9A2 (antibody, V domains shown) VH: QAYLQQSGAELVRSGASVKMSCRASGYSFTSHNMHWVKQTPGQGLEWIGYIYPGNGGSYYNQKFKGKAILTADTSSSTAYMQISSLTSEDSAVYFCTRDYYGNSFVYWGQGTLVTVSA VL: DVVMTQSPSSLTEKTGEKVSMSCKSSQSLLNSGNQKNYLTWYQQKPGQPPKLLIYWASTRESGVPDRFTGSGSGTDFTLTISSLQTEDLAVYYCQNNFRYPFTFGAGTKLELK | 142% | 1.15 µg/mL
266B11F7 (antibody, V domains shown) VH: QVQMKESGPGLVAPSQSLSITCTVSGFSLTTYGVTWVRQPPGKGLEWLGVIWGDGSTNYHSALTSRLRISKDKSKSQVFLKLSSLQTDDTATYYCAKPGRGNALDYWGQGTSVTVSS VL: DIVMTQSPSSLTVTAGEKVTMRCKSSQSLLNSGNQKNYLTWYQQKPGQPPKLLVYWASTRESGVPDRFTGSGSGTDFTLTVSSVQAEDLAVYYCQNDYIFPLTFGAGTKLELK | 97.4% | 1.77 µg/mL
267H5F12 (antibody, V domains shown) VH: QAYLQQSGAELVRSGASVKMSCKASGYTFTSHNMHWVKQTPGQGLEWIGYISPGNGYTNYNQKFRGKATLTADTSSSTAYMQISSLTSEDSAVYFCTRDYYGNSFTYWGQGTLVTVSA VL: DIVMTQSPSSLTEKAGERVSMSCKSSQSLFNSGNQKNYLTWYQQKPGQPPKLLIYWASTRESGVPDRFTGSGSGTEFTLTISSVQAEDLAVYYCQNNYWFPFTFGAGTKLELK | 172% | 1 µg/mL
273F3D4 (antibody, V domains shown) VH: QVQLKESGPGLVAPSQSLSITCTVSGFALTTYGVSWVRQPPGKGLEWLGVIWGDGSTHYHSALISRLSIRKDNSKSQVFLKLNSLQTDDTATYYCAKPGRGNAMDYWGQGTSVTVSS VL: DIVMSQSPSSLTVTAGEKVTMSCKSSQSLLNSGNQKNYLTWYQQKPGQSPKLLIYWASTRESGVPDRFTGSGSGTDFTLTISSMQAEDLAVYYCQNDYIYPLTFGAGTMLELK | 105% | 1.56 µg/mL
280F3B6 (antibody, V domains shown) VH: QAYLQQSGAELVRSGASVKMSCKASGYTFTSHNMHWVKQTPGQGLEWIGYIYPGNGGTNYNQKFKGKATLTADTSSSTAYMQISSLTSEDSAVYFCTRDYYGNSFAYWGQGTLVTVSA VL: DIVMTQSPSSLTEKAGERVSMSCKSSQSLFNSGNQKNYLTWYQQKPGQPPKLLIYWASTRESGVPDRFTGSGSGTDFTLTISSVQAEDLAVYYCQNDYWYPFTFGAGTKLELK | 121% | 1.35 µg/mL
292D9C7 (antibody, V domains shown) VH: QVQLKESGPGLVAPSQSLSITCTVSGFSLTDYGVSWIRQPPGKGLEWLGVIWGGGNAYYNSALKSRLSISKDNSKSQVFLKMNSLRTDDTAMYYCAKNGLLRYLDYWGQGSTLTVSS VL: DTVMTQSPSSLTVTAGEKVTMSCKSSQSLLNSGNQKNYLTWYQQKPGQPPKLLIYWASTRESGVPDRFTGSGSGRDFTLTISSVQVEDLAIYYCQNDYYYPLTFGAGTKVELK | 151% | 1.14 µg/mL
196A12B10 (antibody, V domains shown) VH: QIQWVQSGPELKKPRETVKISCKASGYTFTDYSMHWVKQAPGKGLKWMGWINSETGEATYADDFRGRFALSLETSATTAFLQINSLKNEDTGTYFCARFYYGNSFASWGQGTTLTVSS VL: DIVMTQFPSSLTVTAGEKVTMTCKSSQSLLNGGNQKNYLTWYQQKPGLPPKLLIYWASTRESGVPDRFTGSGSGTEFTLTISSVQAEDLAVYYCQNNYYFPLTFGAGTKLELK | 93.6% | 1.69 µg/mL
370E2B12C3 (antibody, V domains shown) VH: QVQLKESGPGLVAPSQSLSITCTVSGFSLTTYGVHWVRQPPGKGLEWLGVIWAGGSTNYNSALMSRVSINKDNSKSQVFIKMNSLQADDTALYYCARAAYYGNGLDYWGQGTTLTVSS VL: DIVMTQSPSSLTVTAGEKVTMSCKSSQTLLNSGNQKNYLTWYQQKPGQPPKLLIYWASTGESGVPDRFTGSGSGTDFTLTISSVQAEDLAVYFCQNAYFYPFTFGGGTKLEIK | 379% | 0.453 µg/mL
